Results published in patent US20120308580A1 (NATIONAL UNIVERSITY OF SINGAPORE, published 2012).

B1: E183/A2 mAb (antibody, V domains shown)
VH: QVQLQQPGAEFVKPGASVRLSCKASGYTFSSYWMHWVKQRPGQGLEWIGEIDPSDSYTNYNQKFKGKATLTVDKSSSTAYMQFSSLTSEDSAVYYCATSGYDVGVDYWGQGTTLTVSS
VL: DIQMTQSPASLSASVGETVTITCRASENIYSYLAWYHQKQGKSPQLLVYIAKTLAEGVPSRFSGSGSGTQFSLKIDSLQPEDVGSYYCQHHYGTPYTFGGGTKLEIK
notes: also called HBe183-191 antibody; antibody against HBe183-191
B2: c18/A2 mAb (antibody, V domains shown)
VH: QVQLQQSGPELVKPGASVKISCKASGHTFTSYDINWVKQRPGQGLEWIGWIYPGDGSTKYNEKFKGKATLTADKSSSTAYMQLSSLTSENSAVYFCARRDYGYSYAMDYWGQGTSVTVSS
VL: DIQMTQSPASLSTSVGETVTITCRASGNIHNYLAWYQQKQGKSPQLLVYNAKTLADGVPSRFSGSGSGTQFSLKINSLQPEDFGSYYCQHFWSTPFTFGSGTKLEIK
notes: also called HBc18-27 antibody

Experiments:
[1] = biological target: T1, HBV env183-191 peptide / HLA-A201 complex on cells (human; Hepatitis B virus)
[2] = biological target: T2, HBV pol, 455-463 peptide / HLA-A201 complex on T2 cells (human; Hepatitis B virus); test: flow cytometry, peptide pulsed T2 cells (FIG. 8A, peptides of Table 4)
T2 construct: whole, on cells

[3] = biological target: T3, HBc19-27I peptide / HLA-A201 complex on T2 cells (human; Hepatitis B virus); test: as above
T3 construct: whole, on cells

[4] = biological target: T4, FEC11 (EBV) peptide / HLA-A201 complex on T2 cells (human; EBV); test: as above
[5] = biological target: T5, HBV env, 348-357 peptide / HLA-A201 complex on T2 cells (human; Hepatitis B virus); test: flow cytometry, peptide pulsed T2 cells
T5 construct: whole, on cells

[6] = biological target: T2, HBV pol, 455-463 peptide / HLA-A201 …; test: flow cytometry, peptide pulsed T2 cells
[7] = biological target: T4, FEC11 (EBV) peptide / HLA-A201 complex …; test: flow cytometry, peptide pulsed T2 cells
[8] = biological target: T6, Mage3, 271-279 peptide / HLA-A201 complex on T2 cells (human); test: flow cytometry, peptide pulsed T2 cells
T6 construct: whole, on cells; also called Mage3-271-79

[9] = biological target: c18-27 peptide alone (free, not on HLA-A2) (Hepatitis B virus); test: pre-incubation with free peptide, then flow cytometry on the specific target
[10] = biological target: T1, HBV env183-191 peptide / HLA-A201 …; remark: listed apart in the source

Row | Binder | EC50 (read off the curve) [1] [µg] | binding result [2] | binding result [3] | binding result [4] | binding result [5] | binding result [6] | binding result [7] | binding result [8] | binding result [9] | binding result [10]
1 | B1 | ~0.01 | no binding (tested: 1 µM peptide; 0.5 µg mAb) | no binding (tested: 1 µM peptide; 0.5 µg mAb) | no binding (tested: 1 µM peptide; 0.5 µg mAb) |  |  |  |  |  | 
2 | B2 |  |  | no binding (tested: 1 µM peptide; 0.5 µg mAb) |  | no binding (tested: 1 µM peptide; 0.5 µg mAb) | no binding (tested: 1 µM peptide; 0.5 µg mAb) | no binding (tested: 1 µM peptide; 0.5 µg mAb) | no binding (tested: 1 µM peptide; 0.5 µg mAb) | no binding (tested: 1 uM) | no binding (tested: 0.5 ug mAb in 50 ul)
